B1: Replication restart protein DnaT (Escherichia coli (strain K12)), P0A8J2 (parent)
chain: MSSRVLTPDVVGIDALVHDHQTVLAKAEGGVVAVFANNAPAFYAVTPARLAELLALEEKLARPGSDVALDDQLYQEPQAAPVAVPMGKFAMYPDWQPDADFIRLAALWGVALREPVTTEELASFIAYWQAEGKVFHHVQWQQKLARSLQIGRASNGGLPKRDVNTVSEPDSQIPPGFRG
partner: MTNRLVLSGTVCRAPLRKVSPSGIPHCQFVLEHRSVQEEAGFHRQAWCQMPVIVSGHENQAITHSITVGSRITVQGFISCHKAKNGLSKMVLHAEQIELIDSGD

Variants of: B1
Conditions: with prib_ecoli priB

effect of a mutation on the interaction | Variant
disrupting interaction | MSSRVLTPDVVGIDALVHDHQTVLAKAEGGVVAVFANNAPAFYAVTPARLAELLALEEKLARPGSDVALADQLYQEPQAAPVAVPMGKFAMYPDWQPDADFIRLAALWGVALREPVTTEELASFIAYWQAEGKVFHHVQWQQKLARSLQIGRASNGGLPKRDVNTVSEPDSQIPPGFRG

Source: IntAct's records for PubMed 25265331
